From publication PMC10069166 (Heliyon, 2023) come the findings set out here.

This assay deals with SARS-CoV-2 Spike protein (RBD, His & Avi tag) (SARS-CoV-2, wild type, UniProt P0DTC2). The experiment in a line: BLI. For orientation: BLI is a label-free optical method that tracks binding on a fibre tip over time.

B1: 80R antibody (antibody, V domains shown)
VH: EVQLVQSGGGVVQPGKSLRLSCAASGFAFSSYAMHWVRQAPGKGLEWVAVISYDGSNKYYADSVKGRFTISRDNSKNTLYLQMNSLRAEDTAVYYCARDRSYYLDYWGQGTLVTVSS
VL: TTLTQSPATLSLSPGERATLSCRASQSVRSNLAWYQQKPGQAPRPLIYDASTRATGIPDRFSGSGSGTDFTLTISRLEPEDFAVYYCQQRSNWPPTFGQGTKVEVK
With B1, the binding result was “no binding (tested: 20 nM and 10 nM)”.
